# In patent US20050074826A1 (published 2005):
# B1: CCX-CKR2, mouse (on E13 fetal liver cells) (receptor, UniProt P56485 1-362, looked up)
# chain: MDVHLFDYAEPGNYSDINWPCNSSDCIVVDTVQCPTMPNKNVLLYTLSFIYIFIFVIGMIANSVVVWVNIQAKTTGYDTHCYILNLAIADLWVVITIPVWVVSLVQHNQWPMGELTCKITHLIFSINLFGSIFFLACMSVDRYLSITYFTGTSSYKKKMVRRVVCILVWLLAFFVSLPDTYYLKTVTSASNNETYCRSFYPEHSIKEWLIGMELVSVILGFAVPFTIIAIFYFLLARAMSASGDQEKHSSRKIIFSYVVVFLVCWLPYHFVVLLDIFSILHYIPFTCQLENVLFTALHVTQCLSLVHCCVNPVLYSFINRNYRYELMKAFIFKYSAKTGLTKLIDASRVSETEYSALEQNTK
# notes: whole, on cells; also called SDF-1 receptor on E13 fetal liver cells
# B2: CXCR4, human (receptor, UniProt P61073 1-352, looked up)
# chain: MEGISIYTSDNYTEEMGSGDYDSMKEPCFREENANFNKIFLPTIYSIIFLTGIVGNGLVILVMGYQKKLRSMTDKYRLHLSVADLLFVITLPFWAVDAVANWYFGNFLCKAVHVIYTVNLYSSVLILAFISLDRYLAIVHATNSQRPRKLLAEKVVYVGVWIPALLLTIPDFIFANVSEADDRYICDRFYPNDLWVVVFQFQHIMVGLILPGIVILSCYCIIISKLSHSKGHQKRKALKTTVILILAFFACWLPYYIGISIDSFILLEIIKQGCEFENTVHKWISITEALAFFHCCLNPILYAFLGAKFKTSAQHALTSVSRGSSLKILSKGKRGGHSSVSTESESSSFHSS
# notes: whole, on cells; also called CXCR4 on CEM-NKr cells; leukocyte CXCR4
# B3: MIG (ligand, UniProt Q07325 23-125, looked up)
# chain: TPVVRKGRCSCISTNQGTIHLQSLKDLKQFAPSPSCEKIEIIATLKNGVQTCLNPDSADVKELIKKWEKQVSQKKKQKNGKKHQKKKVLKVRKSQRSRQKKTT
# notes: also called monokine induced by gamma interferon; CXCR3 ligand MIG
# B4: human I-TAC (ligand, UniProt O14625 22-94, looked up)
# chain: FPMFKRGRCLCIGPGVKAVKVADIEKASIMYPSNNCDKIEVIITLKENKGQRCLNPKSKQARLIIKKVERKNF
# notes: also called hI-TAC; CXCL11
# B5: mouse I-TAC (ligand, UniProt Q9JHH5 22-100, looked up)
# chain: FLMFKQGRCLCIGPGMKAVKMAEIEKASVIYPSNGCDKVEVIVTMKAHKRQRCLDPRSKQARLIMQAIEKKNFLRRQNM
# notes: also called mI-TAC; I-TAC (mouse protein)
# Legend:
# human SDF-1α [1] = biological target: T1, human SDF-1α (human, UniProt P48061-2 22-89); experiment: radioligand binding on mouse E13 fetal liver cells
# T1 construct: also called hSDF-1α; SDF-1a
# human SDF-1α [2] = biological target: T1, human SDF-1α; experiment: DisplaceMax displacement of 125I SDF-1α on CEM-NKr cells (CXCR4)
# CCX-CKR2 (RDC1), human [3] = biological target: T2, CCX-CKR2 (RDC1), human (human, UniProt P25106 1-362); experiment: competition with 125I I-TAC on MCF-7 cells
# T2 construct: also called CCX-CR2; SDF1 receptor on MCF-7 cells
# Procedure: (§1) Small molecules were included in some assays, where indicated. In these assays the compound was added to the plate to the indicated concentration followed by the addition of radiolabeled chemokine. All assays were then incubated for 3 hrs at 4° C. with gentle agitation. Following incubation in all binding assays, reactions were aspirated onto PEI-treated GF/B glass filters (Packard) using a cell harvester (Packard) and washed twice (25 mM HEPES, 500 mM NaCl, 1 mM CaCl₂, 5 mM MgCl₂, adjusted to pH 7.1). Scintillant (MicroScint 10, Packard) was added to the wells, and the filters were counted in a Packard Topcount scintillation counter. Data were analyzed and plotted using Prism (GraphPad Prism version 3.0a for Macintosh, GraphPad Software).
# CXCR4, human = biological target: B2; experiment: dose response competition with 125I SDF-1α on CEM-NKr cells (CXCR4)
# Procedure: Binding Analysis. […] Small molecules were included in some assays, where indicated. In these assays the compound was added to the plate to the indicated concentration followed by the addition of radiolabeled chemokine. All assays were then incubated for 3 hrs at 4° C. with gentle agitation. Following incubation in all binding assays, reactions were aspirated onto PEI-treated GF/B glass filters (Packard) using a cell harvester (Packard) and washed twice (25 mM HEPES, 500 mM NaCl, 1 mM CaCl₂, 5 mM MgCl₂, adjusted to pH 7.1). Scintillant (MicroScint 10, Packard) was added to the wells, and the filters were counted in a Packard Topcount scintillation counter.
# CCX-CKR2 (RDC1), human [4] = biological target: T2, CCX-CKR2 (RDC1), human; experiment: homologous competition with 125I I-TAC on MCF-7 cells, medium alone
# Procedure: as §1
# [5] = biological target: B1; experiment: competition with radiolabeled human SDF-1 on mouse E13 fetal liver cells
# T2 sequence (P25106 whole entry): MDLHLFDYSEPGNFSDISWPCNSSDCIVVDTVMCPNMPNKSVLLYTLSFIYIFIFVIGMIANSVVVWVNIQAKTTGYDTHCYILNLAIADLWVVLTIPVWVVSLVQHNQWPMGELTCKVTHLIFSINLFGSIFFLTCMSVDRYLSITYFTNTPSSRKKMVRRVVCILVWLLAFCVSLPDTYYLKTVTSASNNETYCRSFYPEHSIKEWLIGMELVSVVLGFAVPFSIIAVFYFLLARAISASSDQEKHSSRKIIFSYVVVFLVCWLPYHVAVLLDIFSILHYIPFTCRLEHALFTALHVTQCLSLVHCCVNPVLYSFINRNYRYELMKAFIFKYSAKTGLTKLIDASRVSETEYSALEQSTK
# T1 sequence (P48061 22-89 limits assumed): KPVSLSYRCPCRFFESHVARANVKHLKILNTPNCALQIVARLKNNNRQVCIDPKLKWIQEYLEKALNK
binder,measurement,setting,value
B1,binding result,human SDF-1α [1],binds
B2,binding result,human SDF-1α [2],binds
B3,binding result,"CCX-CKR2 (RDC1), human [3]",no binding
B4,binding result,"CXCR4, human",no binding
same,IC50,"CCX-CKR2 (RDC1), human [4]",1 nM
same,binding result,[5],binds
B5,binding result,[5],binds
